Measured values published in patent US20140087995A1 (published 2014).
Numbered stars: 1 amine (or outer) side, 2 acyl side, 3 side chain; on linkers, the order of the positions; unused ones are H or OH. Bridge positions count the residues as written; N and C are the ends. Side chains are listed from the residue outwards. Ends that are not written are not given here. * marks the point of attachment. C20 diacid = O=C(O)CCCCCCCCCCCCCCCCCCC(=O)*; γGlu = O=C(O)[C@H](CCC(=O)[*:2])N[*:1]

B1: N^ε1-[(4S)-4-carboxy-4-(19-carboxynonadecanoylamino)butanoyl]-[His14,Arg17,Pro21,Pro27,Arg34]-h-amylin (peptide)
peptide: K([γGlu-C20 diacid])CNTATCATQRLAHFLRHSSPNFGAIPSSTNVGRNTY-NH2
modifications: disulfide 2-7; N-terminus assumed
SMILES: CC[C@H](C)[C@H](NC(=O)[C@H](C)NC(=O)CNC(=O)[C@H](Cc1ccccc1)NC(=O)[C@H](CC(N)=O)NC(=O)[C@@H]1CCCN1C(=O)[C@H](CO)NC(=O)[C@H](CO)NC(=O)[C@H](Cc1c[nH]cn1)NC(=O)[C@H](CCCNC(=N)N)NC(=O)[C@H](CC(C)C)NC(=O)[C@H](Cc1ccccc1)NC(=O)[C@H](Cc1c[nH]cn1)NC(=O)[C@H](C)NC(=O)[C@H](CC(C)C)NC(=O)[C@H](CCCNC(=N)N)NC(=O)[C@H](CCC(N)=O)NC(=O)[C@@H](NC(=O)[C@H](C)NC(=O)[C@@H]1CSSC[C@H](NC(=O)[C@@H](N)CCCCNC(=O)CC[C@H](NC(=O)CCCCCCCCCCCCCCCCCCC(=O)O)C(=O)O)C(=O)N[C@@H](CC(N)=O)C(=O)N[C@@H]([C@@H](C)O)C(=O)N[C@@H](C)C(=O)N[C@@H]([C@@H](C)O)C(=O)N1)[C@@H](C)O)C(=O)N1CCC[C@H]1C(=O)N[C@@H](CO)C(=O)N[C@@H](CO)C(=O)N[C@H](C(=O)N[C@@H](CC(N)=O)C(=O)N[C@H](C(=O)NCC(=O)N[C@@H](CCCNC(=N)N)C(=O)N[C@@H](CC(N)=O)C(=O)N[C@H](C(=O)N[C@@H](Cc1ccc(O)cc1)C(N)=O)[C@@H](C)O)C(C)C)[C@@H](C)O
notes: also called compound 85
B2: N^ε1-[(4S)-4-carboxy-4-(19-carboxynonadecanoylamino)butanoyl]-[His14,Arg17,Pro21,Pro27,His34]-h-amylin (peptide)
peptide: K([γGlu-C20 diacid])CNTATCATQRLAHFLRHSSPNFGAIPSSTNVGHNTY-NH2
modifications: disulfide 2-7; N-terminus assumed
SMILES: CC[C@H](C)[C@H](NC(=O)[C@H](C)NC(=O)CNC(=O)[C@H](Cc1ccccc1)NC(=O)[C@H](CC(N)=O)NC(=O)[C@@H]1CCCN1C(=O)[C@H](CO)NC(=O)[C@H](CO)NC(=O)[C@H](Cc1c[nH]cn1)NC(=O)[C@H](CCCNC(=N)N)NC(=O)[C@H](CC(C)C)NC(=O)[C@H](Cc1ccccc1)NC(=O)[C@H](Cc1c[nH]cn1)NC(=O)[C@H](C)NC(=O)[C@H](CC(C)C)NC(=O)[C@H](CCCNC(=N)N)NC(=O)[C@H](CCC(N)=O)NC(=O)[C@@H](NC(=O)[C@H](C)NC(=O)[C@@H]1CSSC[C@H](NC(=O)[C@@H](N)CCCCNC(=O)CC[C@H](NC(=O)CCCCCCCCCCCCCCCCCCC(=O)O)C(=O)O)C(=O)N[C@@H](CC(N)=O)C(=O)N[C@@H]([C@@H](C)O)C(=O)N[C@@H](C)C(=O)N[C@@H]([C@@H](C)O)C(=O)N1)[C@@H](C)O)C(=O)N1CCC[C@H]1C(=O)N[C@@H](CO)C(=O)N[C@@H](CO)C(=O)N[C@H](C(=O)N[C@@H](CC(N)=O)C(=O)N[C@H](C(=O)NCC(=O)N[C@@H](Cc1c[nH]cn1)C(=O)N[C@@H](CC(N)=O)C(=O)N[C@H](C(=O)N[C@@H](Cc1ccc(O)cc1)C(N)=O)[C@@H](C)O)C(C)C)[C@@H](C)O
notes: also called compound 81
B3: N^ε1-[(4S)-4-carboxy-4-(19-carboxynonadecanoylamino)butanoyl]-[His14,Arg17,Pro21,Pro27,Pro31,Pro34]-h-amylin (peptide)
peptide: K([γGlu-C20 diacid])CNTATCATQRLAHFLRHSSPNFGAIPSSTPVGPNTY-NH2
modifications: disulfide 2-7; N-terminus assumed
SMILES: CC[C@H](C)[C@H](NC(=O)[C@H](C)NC(=O)CNC(=O)[C@H](Cc1ccccc1)NC(=O)[C@H](CC(N)=O)NC(=O)[C@@H]1CCCN1C(=O)[C@H](CO)NC(=O)[C@H](CO)NC(=O)[C@H](Cc1c[nH]cn1)NC(=O)[C@H](CCCNC(=N)N)NC(=O)[C@H](CC(C)C)NC(=O)[C@H](Cc1ccccc1)NC(=O)[C@H](Cc1c[nH]cn1)NC(=O)[C@H](C)NC(=O)[C@H](CC(C)C)NC(=O)[C@H](CCCNC(=N)N)NC(=O)[C@H](CCC(N)=O)NC(=O)[C@@H](NC(=O)[C@H](C)NC(=O)[C@@H]1CSSC[C@H](NC(=O)[C@@H](N)CCCCNC(=O)CC[C@H](NC(=O)CCCCCCCCCCCCCCCCCCC(=O)O)C(=O)O)C(=O)N[C@@H](CC(N)=O)C(=O)N[C@@H]([C@@H](C)O)C(=O)N[C@@H](C)C(=O)N[C@@H]([C@@H](C)O)C(=O)N1)[C@@H](C)O)C(=O)N1CCC[C@H]1C(=O)N[C@@H](CO)C(=O)N[C@@H](CO)C(=O)N[C@H](C(=O)N1CCC[C@H]1C(=O)N[C@H](C(=O)NCC(=O)N1CCC[C@H]1C(=O)N[C@@H](CC(N)=O)C(=O)N[C@H](C(=O)N[C@@H](Cc1ccc(O)cc1)C(N)=O)[C@@H](C)O)C(C)C)[C@@H](C)O
B4: N^ε1-[(4S)-4-carboxy-4-[[(4S)-4-carboxy-4-(19-carboxynonadecanoylamino)butanoyl]amino]butanoyl]-[Arg17,Pro21,Pro27,His34]-h-amylin (peptide)
peptide: K([γGlu-γGlu-C20 diacid])CNTATCATQRLANFLRHSSPNFGAIPSSTNVGHNTY-NH2
modifications: disulfide 2-7; N-terminus assumed
SMILES: CC[C@H](C)[C@H](NC(=O)[C@H](C)NC(=O)CNC(=O)[C@H](Cc1ccccc1)NC(=O)[C@H](CC(N)=O)NC(=O)[C@@H]1CCCN1C(=O)[C@H](CO)NC(=O)[C@H](CO)NC(=O)[C@H](Cc1c[nH]cn1)NC(=O)[C@H](CCCNC(=N)N)NC(=O)[C@H](CC(C)C)NC(=O)[C@H](Cc1ccccc1)NC(=O)[C@H](CC(N)=O)NC(=O)[C@H](C)NC(=O)[C@H](CC(C)C)NC(=O)[C@H](CCCNC(=N)N)NC(=O)[C@H](CCC(N)=O)NC(=O)[C@@H](NC(=O)[C@H](C)NC(=O)[C@@H]1CSSC[C@H](NC(=O)[C@@H](N)CCCCNC(=O)CC[C@H](NC(=O)CC[C@H](NC(=O)CCCCCCCCCCCCCCCCCCC(=O)O)C(=O)O)C(=O)O)C(=O)N[C@@H](CC(N)=O)C(=O)N[C@@H]([C@@H](C)O)C(=O)N[C@@H](C)C(=O)N[C@@H]([C@@H](C)O)C(=O)N1)[C@@H](C)O)C(=O)N1CCC[C@H]1C(=O)N[C@@H](CO)C(=O)N[C@@H](CO)C(=O)N[C@H](C(=O)N[C@@H](CC(N)=O)C(=O)N[C@H](C(=O)NCC(=O)N[C@@H](Cc1c[nH]cn1)C(=O)N[C@@H](CC(N)=O)C(=O)N[C@H](C(=O)N[C@@H](Cc1ccc(O)cc1)C(N)=O)[C@@H](C)O)C(C)C)[C@@H](C)O
notes: also called compound 86
B5: N^ε1-[(4S)-4-carboxy-4-[[(4S)-4-carboxy-4-(19-carboxynonadecanoylamino)butanoyl]amino]butanoyl]-[Glu14,Arg17,Pro21,Pro27,Arg34]-h-amylin (peptide)
peptide: K([γGlu-γGlu-C20 diacid])CNTATCATQRLAEFLRHSSPNFGAIPSSTNVGRNTY-NH2
modifications: disulfide 2-7; N-terminus assumed
SMILES: CC[C@H](C)[C@H](NC(=O)[C@H](C)NC(=O)CNC(=O)[C@H](Cc1ccccc1)NC(=O)[C@H](CC(N)=O)NC(=O)[C@@H]1CCCN1C(=O)[C@H](CO)NC(=O)[C@H](CO)NC(=O)[C@H](Cc1c[nH]cn1)NC(=O)[C@H](CCCNC(=N)N)NC(=O)[C@H](CC(C)C)NC(=O)[C@H](Cc1ccccc1)NC(=O)[C@H](CCC(=O)O)NC(=O)[C@H](C)NC(=O)[C@H](CC(C)C)NC(=O)[C@H](CCCNC(=N)N)NC(=O)[C@H](CCC(N)=O)NC(=O)[C@@H](NC(=O)[C@H](C)NC(=O)[C@@H]1CSSC[C@H](NC(=O)[C@@H](N)CCCCNC(=O)CC[C@H](NC(=O)CC[C@H](NC(=O)CCCCCCCCCCCCCCCCCCC(=O)O)C(=O)O)C(=O)O)C(=O)N[C@@H](CC(N)=O)C(=O)N[C@@H]([C@@H](C)O)C(=O)N[C@@H](C)C(=O)N[C@@H]([C@@H](C)O)C(=O)N1)[C@@H](C)O)C(=O)N1CCC[C@H]1C(=O)N[C@@H](CO)C(=O)N[C@@H](CO)C(=O)N[C@H](C(=O)N[C@@H](CC(N)=O)C(=O)N[C@H](C(=O)NCC(=O)N[C@@H](CCCNC(=N)N)C(=O)N[C@@H](CC(N)=O)C(=O)N[C@H](C(=O)N[C@@H](Cc1ccc(O)cc1)C(N)=O)[C@@H](C)O)C(C)C)[C@@H](C)O
notes: also called compound 88
B6: N^ε1-[(4S)-4-carboxy-4-[[(4S)-4-carboxy-4-(19-carboxynonadecanoylamino)butanoyl]amino]butanoyl]-[Glu14,Arg17,Pro21,Pro27,Arg35]-h-amylin (peptide)
peptide: K([γGlu-γGlu-C20 diacid])CNTATCATQRLAEFLRHSSPNFGAIPSSTNVGSRTY-NH2
modifications: disulfide 2-7; N-terminus assumed
SMILES: CC[C@H](C)[C@H](NC(=O)[C@H](C)NC(=O)CNC(=O)[C@H](Cc1ccccc1)NC(=O)[C@H](CC(N)=O)NC(=O)[C@@H]1CCCN1C(=O)[C@H](CO)NC(=O)[C@H](CO)NC(=O)[C@H](Cc1c[nH]cn1)NC(=O)[C@H](CCCNC(=N)N)NC(=O)[C@H](CC(C)C)NC(=O)[C@H](Cc1ccccc1)NC(=O)[C@H](CCC(=O)O)NC(=O)[C@H](C)NC(=O)[C@H](CC(C)C)NC(=O)[C@H](CCCNC(=N)N)NC(=O)[C@H](CCC(N)=O)NC(=O)[C@@H](NC(=O)[C@H](C)NC(=O)[C@@H]1CSSC[C@H](NC(=O)[C@@H](N)CCCCNC(=O)CC[C@H](NC(=O)CC[C@H](NC(=O)CCCCCCCCCCCCCCCCCCC(=O)O)C(=O)O)C(=O)O)C(=O)N[C@@H](CC(N)=O)C(=O)N[C@@H]([C@@H](C)O)C(=O)N[C@@H](C)C(=O)N[C@@H]([C@@H](C)O)C(=O)N1)[C@@H](C)O)C(=O)N1CCC[C@H]1C(=O)N[C@@H](CO)C(=O)N[C@@H](CO)C(=O)N[C@H](C(=O)N[C@@H](CC(N)=O)C(=O)N[C@H](C(=O)NCC(=O)N[C@@H](CO)C(=O)N[C@@H](CCCNC(=N)N)C(=O)N[C@H](C(=O)N[C@@H](Cc1ccc(O)cc1)C(N)=O)[C@@H](C)O)C(C)C)[C@@H](C)O
notes: also called compound 89

These binders were tested against T1, human amylin 3(a) receptor (human calcitonin receptor co-expressed with RAMP-3) (human, UniProt P30988 25-474; O60896 24-148, limits assumed) (assay: cell-based or functional assay).
T1 sequence (looked up) 1: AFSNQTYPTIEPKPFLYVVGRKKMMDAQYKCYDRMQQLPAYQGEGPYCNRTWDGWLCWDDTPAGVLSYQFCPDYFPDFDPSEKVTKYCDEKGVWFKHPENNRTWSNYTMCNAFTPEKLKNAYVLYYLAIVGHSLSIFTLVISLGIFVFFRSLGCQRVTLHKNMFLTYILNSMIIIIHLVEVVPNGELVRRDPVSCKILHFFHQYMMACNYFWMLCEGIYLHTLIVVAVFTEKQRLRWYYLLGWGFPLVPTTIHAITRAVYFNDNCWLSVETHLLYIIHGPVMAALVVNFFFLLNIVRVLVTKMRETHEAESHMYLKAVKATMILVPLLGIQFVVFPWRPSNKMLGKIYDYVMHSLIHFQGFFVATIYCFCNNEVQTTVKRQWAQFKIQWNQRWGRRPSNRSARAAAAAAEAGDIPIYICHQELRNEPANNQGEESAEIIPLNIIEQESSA
T1 sequence (looked up) 2: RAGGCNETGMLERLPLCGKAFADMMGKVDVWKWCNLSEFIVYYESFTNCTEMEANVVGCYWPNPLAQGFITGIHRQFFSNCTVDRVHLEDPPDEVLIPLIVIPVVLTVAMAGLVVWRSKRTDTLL
In the case of B1, the “hAmylin-R funct. EC50” value is reported as 146 pM. For B2, the “hAmylin-R funct. EC50” value was 130 pM. With B3 the “hAmylin-R funct. EC50” value was 71 pM. For B4, the “hAmylin-R funct. EC50” value was 298 pM. B5 was tested, and the “hAmylin-R funct. EC50” value was 773 pM. B6 was tested, and the “hAmylin-R funct. EC50” value was 404 pM.

What follows are binders tested against T2, human calcitonin receptor (human, UniProt P30988 25-474) (assay: cell-based or functional assay).
T2 sequence (looked up): T1 sequence (looked up) 1
For B1, the “Ratio hCT/hAmylin funct.” value was 26.6 and the “hCTR funct. EC50” value was 3880 pM. In the case of B2, the “Ratio hCT/hAmylin funct.” value is reported as 13.3 and the “hCTR funct. EC50” value is reported as 1730 pM. In the case of B3, the “Ratio hCT/hAmylin funct.” value is reported as 4.9 and the “hCTR funct. EC50” value is reported as 345 pM. For B4, the “Ratio hCT/hAmylin funct.” value was 64.4 and the “hCTR funct. EC50” value was 19200 pM. B5 was tested, and the “Ratio hCT/hAmylin funct.” value was 8.5 and the “hCTR funct. EC50” value was 6560 pM. B6 was tested, and the “Ratio hCT/hAmylin funct.” value was 27.8 and the “hCTR funct. EC50” value was 11200 pM.
